Measured values reported in paper PMC2115935.

Target: integral membrane proteins of stripped rat liver cell membranes (rat (endogenous in liver))
Test: co-sedimentation

- Kd: 1.6 µM
Substance: Actin, isolated from rabbit skeletal muscle, 125I-labeled (from UniProt P68135 1-377) (natural protein)
